Paper doi:10.1101/2023.04.26.538370

What was measured:
[1] = biological target: microtubules (MTs) of cultured rat hippocampal neurons (rat (endogenous in hippocampal neurons)) (UniProt P68370); assay: FRAP fitted with a reaction-diffusion simulation
[2] = biological target: microtubules (MTs) of cultured rat hippocampal neurons (rat (endogenous in hippocampal neurons)) (UniProt P68370); assay: FRAP fitted with a reaction-diffusion-advection simulation
[3] = biological target: microtubules (MTs) of cultured rat hippocampal neurons (rat (endogenous in hippocampal neurons)) (UniProt P68370); assay: FRAP fitted with a reaction-diffusion simulation; remark: listed apart in the source

Row | Kd [1] [nM] | Kd [2] [nM] | Kd [3] [nM] | Substance
1 | 1000 | 3000 | 4500 | GFP-MAP2C, wild type (pAcGFP-His-MAP2C), expressed in cultured rat hippocampal neurons (from UniProt P11137-2 1-471) (natural protein)
2 |  |  | 1000 | GFP-MAP2B expressed in cultured rat hippocampal neurons (from UniProt P11137-1 1-1827) (natural protein)
